Results on 17 molecules are retold here after patent US20220202905A1, “COMPOSITION FOR PREVENTING OR TREATING NEUROTROPHIC KERATITIS WHICH CONTAINS PACAP PEPTIDE OR STABILIZED PACAP PEPTIDE” (SENJU PHARMACEUTICAL CO., LTD., priority 2019, published 2022).

Sequences and labels used below:
T1: VPAC1 receptor (UniProt P32241 31-457, limits assumed)
T1 sequence (looked up): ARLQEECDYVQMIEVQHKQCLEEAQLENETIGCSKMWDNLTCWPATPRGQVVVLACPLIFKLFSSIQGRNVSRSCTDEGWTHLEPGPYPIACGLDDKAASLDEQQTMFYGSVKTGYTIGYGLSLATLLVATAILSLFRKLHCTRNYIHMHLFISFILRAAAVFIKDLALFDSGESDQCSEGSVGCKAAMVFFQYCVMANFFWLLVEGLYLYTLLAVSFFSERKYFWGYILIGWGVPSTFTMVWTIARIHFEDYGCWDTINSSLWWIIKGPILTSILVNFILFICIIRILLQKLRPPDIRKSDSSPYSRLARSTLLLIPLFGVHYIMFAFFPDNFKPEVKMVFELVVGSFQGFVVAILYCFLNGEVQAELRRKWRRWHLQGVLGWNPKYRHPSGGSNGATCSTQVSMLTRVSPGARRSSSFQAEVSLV

T2: PAC1 receptor (UniProt P41586 21-468, limits assumed)
T2 sequence (looked up): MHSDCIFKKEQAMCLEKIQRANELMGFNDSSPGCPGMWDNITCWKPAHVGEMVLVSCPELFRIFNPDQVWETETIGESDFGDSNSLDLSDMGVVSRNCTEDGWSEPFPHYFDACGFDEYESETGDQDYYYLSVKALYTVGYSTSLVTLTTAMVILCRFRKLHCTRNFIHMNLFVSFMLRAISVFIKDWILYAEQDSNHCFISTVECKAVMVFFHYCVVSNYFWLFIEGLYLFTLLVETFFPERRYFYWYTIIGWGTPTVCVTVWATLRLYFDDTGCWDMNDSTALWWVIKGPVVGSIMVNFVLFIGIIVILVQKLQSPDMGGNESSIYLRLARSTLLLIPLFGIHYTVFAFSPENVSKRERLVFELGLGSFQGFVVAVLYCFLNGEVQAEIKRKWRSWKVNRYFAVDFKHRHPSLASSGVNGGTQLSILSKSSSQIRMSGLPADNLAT

B1: Peptide 20 (peptide)
peptide: HSXGIFTXSYSRYRKQLAVKKYLAAVA
modifications: N-terminal acetyl (Ac-); Tz (aspartic acid with carboxyl group replaced by tetrazole) at positions 3 and 8; C-terminal amide (NH2)
B2: Peptide 18 (peptide)
peptide: HSXGIFTXSYSRYRKQAAVKKYLAAVL
modifications: N-terminal acetyl (Ac-); Tz (aspartic acid with carboxyl group replaced by tetrazole) at positions 3 and 8; C-terminal amide (NH2)
B3: Peptide 14 (peptide)
peptide: HAXGIFTXSYSRYRKQLAVKKYLAAVL
modifications: N-terminal acetyl (Ac-); Tz (aspartic acid with carboxyl group replaced by tetrazole) at positions 3 and 8; C-terminal amide (NH2)
B4: Peptide 17 (peptide)
peptide: HSXGIFTXSYSRYRKALAVKKYLAAVL
modifications: N-terminal acetyl (Ac-); Tz (aspartic acid with carboxyl group replaced by tetrazole) at positions 3 and 8; C-terminal amide (NH2)
B5: Peptide 13 (peptide)
peptide: HSXGIFTXSYSRYRKXLAVKKYLAAVL
modifications: N-terminal acetyl (Ac-); Tz (aspartic acid with carboxyl group replaced by tetrazole) at positions 3 and 8; egTz (glutamine with amide replaced by tetrazole) at position 16; C-terminal amide (NH2)
B6: Peptide 3 (peptide)
peptide: HSXGIFTDSYSRYRKQMAVKKYLAAVL
modifications: Tz (aspartic acid with carboxyl group replaced by tetrazole) at position 3; C-terminal amide (NH2)
B7: Peptide 10 (peptide)
peptide: HSXGIFTXSYSRYRKQMAVKKYLAAVL
modifications: N-terminal acetyl (Ac-); Tz (aspartic acid with carboxyl group replaced by tetrazole) at positions 3 and 8; C-terminal amide (NH2)
B8: Peptide 5 (peptide)
peptide: HSXGIFTXSYSRYRKQMAVKKYLAAVL
modifications: Tz (aspartic acid with carboxyl group replaced by tetrazole) at positions 3 and 8; C-terminal amide (NH2)
B9: Peptide 4 (peptide)
peptide: HSDGIFTXSYSRYRKQMAVKKYLAAVL
modifications: Tz (aspartic acid with carboxyl group replaced by tetrazole) at position 8; C-terminal amide (NH2)
B10: Peptide 11 (peptide)
peptide: HSXGIFTXSYSRYRKQXAVKKYLAAVL
modifications: N-terminal mesyl (Ms-); Tz (aspartic acid with carboxyl group replaced by tetrazole) at positions 3 and 8; norleucine at position 17; C-terminal amide (NH2)
B11: Peptide 15 (peptide)
peptide: HSXGIFTXAYSRYRKQLAVKKYLAAVL
modifications: N-terminal acetyl (Ac-); Tz (aspartic acid with carboxyl group replaced by tetrazole) at positions 3 and 8; C-terminal amide (NH2)
B12: Peptide 16 (peptide)
peptide: HSXGIFTXSYARYRKQLAVKKYLAAVL
modifications: N-terminal acetyl (Ac-); Tz (aspartic acid with carboxyl group replaced by tetrazole) at positions 3 and 8; C-terminal amide (NH2)
B13: Peptide 12 (peptide)
peptide: HSXGIFTXSYSRYRKQLAVKKYLAAVL
modifications: N-terminal mesyl (Ms-); Tz (aspartic acid with carboxyl group replaced by tetrazole) at positions 3 and 8; C-terminal amide (NH2)
B14: Peptide 19 (peptide)
peptide: HSXGIFTXSYSRYRKQLAAKKYLAAVL
modifications: N-terminal acetyl (Ac-); Tz (aspartic acid with carboxyl group replaced by tetrazole) at positions 3 and 8; C-terminal amide (NH2)

Square brackets hold non-standard residues; d marks the D form. Peptide text beside a SMILES is read from it. * marks the point of attachment. Ala(1H-tetrazol-5-yl) = N[C@@H](Cc1nnn[nH]1)C(=O)O; Nle = CCCC[C@H](N)C(=O)O; Ms = CS(=O)(=O)* A value given as a limit tells only on which side of the number the result lay.

In one series the target is T1, VPAC1 receptor. As to the kind of experiment: cell-based or functional assay.
Settings: not given
Turning to B1, the “EC50 (VPAC1R), cAMP inducing effect” value was 40 pM.
With B2, the “EC50 (VPAC1R), cAMP inducing effect” value is 33 pM.
Take B3: the “EC50 (VPAC1R), cAMP inducing effect” value is 99 pM.
On the same count and under the same terms, the same measure for B4: 132 pM; for B5: 72 pM; for B6: 101 pM.
The same measure, in the same setting: with B7 the figure was 101 pM; with B8, 64 pM; with B9, 53 pM.
On the same count and under the same terms, with B10 the figure was 190 pM.
For the molecule B11, the “EC50 (VPAC1R), cAMP inducing effect” value stood at 149 pM.
On the same count and under the same terms, the same measure for B12: 65 pM; for B13: 87 pM; for B14: 44 pM.

In a further series the target is T2, PAC1 receptor. The experiment in a line: cell-based or functional assay.
Settings: not given
As to B1, the “EC50 (PAC1R), cAMP inducing effect” value turned out to be 80 pM.
Still for that read-out and setting: the same measure for B2: 61 pM; for B3: 74 pM; for B4: 99 pM.
The same measure, in the same setting: the same measure for B5: 132 pM; for B7: 76 pM.
Still for that read-out and setting: with B8 the figure was 33 pM; with B9, 40 pM; with B10, 38 pM.
As for B11, the “EC50 (PAC1R), cAMP inducing effect” value was 61 pM.
As to B12, the “EC50 (PAC1R), cAMP inducing effect” value turned out to be 330 pM.
Still for that read-out and setting: with B13 the figure was 23 pM; with B14, 94 pM.

Test system in the next series: not listed separately
As to the kind of experiment: Peptide stability test, Tris buffer (pH 7.0), 60° C. storage, HPLC remaining rate. The series is classed as physicochemical. The note with it: Table 7-2; 100 μM in Tris buffer pH 7.0. As for the experimental part:
Peptides 1, 2 and 6 to 9 synthesized in Example 2 were weighed and dissolved in Tris buffer (pH 7.0) to prepare 1.0 mM peptide solutions. Each solution was filtered with a Chromatdisk (product of Merck Millipore, Millex-GV, 0.22 μm). The filtrate was diluted to 100 μM with Tris buffer (pH 7.0) and dispensed into a tube (Protein LoBind Tube by Eppendorf Co.). The prepared peptide solutions were incubated for 1 week or 2 weeks in a 60° C. thermostatic bath to obtain stored samples. A simultaneously prepared sample among the peptide solutions that was not stored was used as a standard sample (initial sample). The standard sample and the stored samples were stored at −30° C. until sample analysis. Each stored sample was measured under the following HPLC analysis conditions 2, and the remaining rate after correction for water for each peptide among the stored samples was calculated in the same manner as Example 3. Guard column: XSelect CSH C18 by Waters Co., 5 μm, 4.6×20 mm Guard Cartridge Detection wavelength: 220 nm Mobile phase A: 0.1% formic acid aqueous solution Mobile phase B: 0.1% acetonitrile formate solution Measuring time: 20 minutes Measuring sample injection rate: 50 μL Flow rate: 1.0 mL/min Column temperature: 40° C. Sample cooler: 25° C. Mobile phase delivery: The mixing ratio of mobile phase A and mobile phase B was varied as shown in Table 5 for linear concentration gradient control. Peptides 12 to 25, 27 and 28 synthesized in Example 2 were weighed and dissolved in Tris buffer (pH 7.0) to prepare 1.0 mM peptide solutions. Each solution was filtered with a Chromatdisk (product of Merck Millipore, Millex-GV, 0.22 μm). The filtrate was diluted to 100 μM with Tris buffer (pH 7.0) and dispensed into a tube (Protein LoBind Tube by Eppendorf Co.). The prepared peptide solutions were incubated for one week or 2 weeks in a 60° C. thermostatic bath to obtain stored samples. A simultaneously prepared sample among the peptide solutions that was not stored was used as a standard sample (initial sample). The standard sample and the stored samples were stored at −30° C. until sample analysis. The remaining rate after correction for water for each peptide among the stored samples was calculated in the same manner as Example 4, and the results are shown in Table 7. Peptides 29 to 34 synthesized in Example 2 were weighed and dissolved in Tris buffer (pH 7.0) to prepare 1.0 mM peptide solutions. Each solution was filtered with a Chromatdisk (product of Merck Millipore, Millex-GV, 0.22 μm). The filtrate was diluted to 100 μM with Tris buffer (pH 7.0) and dispensed into a tube (Protein LoBind Tube by Eppendorf Co.). The prepared peptide solutions were incubated for 2 weeks in a 60° C. thermostatic bath to obtain stored samples. A simultaneously prepared sample among the peptide solutions that was not stored was used as a standard sample (initial sample). The standard sample and the stored samples were stored at −30° C. until sample analysis. The remaining rate after correction for water for each peptide among the stored samples was calculated in the same manner as Example 4, and the results are shown in Table 7-2. Peptide 26 synthesized in Example 2 was weighed and dissolved in Tris buffer (pH 7.0) to prepare a 1.0 mM peptide solution. The solution was filtered with a Chromatdisk (product of Merck Millipore, Millex-GV, 0.22 μm). The filtrate was diluted to 100 μM with Tris buffer (pH 7.0) and dispensed into a tube (Protein LoBind Tube by Eppendorf Co.). The prepared peptide solution was incubated for one week or 2 weeks in a 60° C. thermostatic bath to obtain stored samples. A simultaneously prepared sample among the peptide solutions that was not stored was used as a standard sample (initial sample). The standard sample and the stored sample were stored at −30° C. until sample analysis. […]
As to `CC[C@H](C)[C@H](NC(=O)[C@H](C)NC(=O)[C@H](Cc1nnn[nH]1)NC(=O)[C@H](CO)NC(=O)[C@H](Cc1c[nH]cn1)NS(C)(=O)=O)C(=O)N[C@@H](Cc1ccccc1)C(=O)N[C@H](C(=O)N[C@@H](Cc1nnn[nH]1)C(=O)N[C@@H](CO)C(=O)N[C@@H](Cc1ccc(O)cc1)C(=O)N[C@@H](CO)C(=O)N[C@@H](CCCNC(=N)N)C(=O)N[C@@H](Cc1ccc(O)cc1)C(=O)N[C@@H](CCCNC(=N)N)C(=O)N[C@@H](CCCCN)C(=O)N[C@@H](CCC(N)=O)C(=O)N[C@@H](CC(C)C)C(=O)N[C@@H](C)C(=O)N[C@H](C(=O)N[C@@H](CCCCN)C(=O)N[C@@H](CCCCN)C(=O)N[C@@H](Cc1ccc(O)cc1)C(=O)N[C@@H](CC(C)C)C(=O)N[C@@H](C)C(=O)N[C@@H](C)C(=O)N[C@H](C(=O)N[C@@H](CC(C)C)C(N)=O)C(C)C)C(C)C)[C@@H](C)O` [Peptide 30] (Ms-HS[Ala(1H-tetrazol-5-yl)]AIFT[Ala(1H-tetrazol-5-yl)]SYSRYRKQLAVKKYLAAVL-NH2), the “remaining rate after correction for water, 60° C., 2 weeks preservation” value was found to be 92.2%.
Still for that read-out and setting: with `CC[C@H](C)[C@H](NC(=O)[C@H](C)NC(=O)[C@H](Cc1nnn[nH]1)NC(=O)[C@H](CO)NC(=O)[C@H](Cc1c[nH]cn1)NC(C)=O)C(=O)N[C@@H](Cc1ccccc1)C(=O)N[C@H](C(=O)N[C@@H](Cc1nnn[nH]1)C(=O)N[C@@H](CO)C(=O)N[C@@H](Cc1ccc(O)cc1)C(=O)N[C@@H](CO)C(=O)N[C@@H](CCCNC(=N)N)C(=O)N[C@@H](Cc1ccc(O)cc1)C(=O)N[C@@H](CCCNC(=N)N)C(=O)N[C@@H](CCCCN)C(=O)N[C@@H](C)C(=O)N[C@@H](C)C(=O)N[C@@H](C)C(=O)N[C@H](C(=O)N[C@@H](CCCCN)C(=O)N[C@@H](CCCCN)C(=O)N[C@@H](Cc1ccc(O)cc1)C(=O)N[C@@H](CC(C)C)C(=O)N[C@@H](C)C(=O)N[C@@H](C)C(=O)N[C@H](C(=O)N[C@@H](CC(C)C)C(N)=O)C(C)C)C(C)C)[C@@H](C)O` [Peptide 34] (Ac-HS[Ala(1H-tetrazol-5-yl)]AIFT[Ala(1H-tetrazol-5-yl)]SYSRYRKAAAVKKYLAAVL-NH2) the figure was 96.9%.

Still in this series, the particulars now being: buffer, 336 h.
Consider `CCCC[C@H](NC(=O)[C@H](CCC(N)=O)NC(=O)[C@H](CCCCN)NC(=O)[C@H](CCCNC(=N)N)NC(=O)[C@H](Cc1ccc(O)cc1)NC(=O)[C@H](CCCNC(=N)N)NC(=O)[C@H](CO)NC(=O)[C@H](Cc1ccc(O)cc1)NC(=O)[C@H](CO)NC(=O)[C@H](Cc1nnn[nH]1)NC(=O)[C@@H](NC(=O)[C@H](Cc1ccccc1)NC(=O)[C@@H](NC(=O)CNC(=O)[C@H](Cc1nnn[nH]1)NC(=O)[C@H](CO)NC(=O)[C@H](Cc1c[nH]cn1)NC(C)=O)[C@@H](C)CC)[C@@H](C)O)C(=O)N[C@@H](C)C(=O)N[C@H](C(=O)N[C@@H](CCCCN)C(=O)N[C@@H](CCCCN)C(=O)N[C@@H](Cc1ccc(O)cc1)C(=O)N[C@@H](CC(C)C)C(=O)N[C@@H](C)C(=O)N[C@@H](C)C(=O)N[C@H](C(=O)N[C@@H](CC(C)C)C(N)=O)C(C)C)C(C)C` [Peptide 8] (Ac-HS[Ala(1H-tetrazol-5-yl)]GIFT[Ala(1H-tetrazol-5-yl)]SYSRYRKQ[Nle]AVKKYLAAVL-NH2), for which the “expected remaining rate for 2 years at room temperature” value was ≥ 90%.
